Key:
[1] = substrate: CCOc1ccc2ccc(=O)oc2c1; test: 7-ethoxycoumarin O-deethylation (ECOD), fluorescence of 7-hydroxycoumarin, Sf9 microsomes; format: biochemical, Culex quinquefasciatus; settings: 1 mM NADPH, 0.1 M sodium phosphate pH 7.5, 30 °C, 30 min, substrate 0.1 to 1.2 mM, apparent
Excerpt: 7-ethoxycoumarin O-deethylation (ECOD), fluorescence of 7-hydroxycoumarin, Sf9 microsomes on CYP6AA7/CPR

[2] = substrate: CCOc1ccc2ccc(=O)oc2c1; test: as above; format: biochemical, Culex quinquefasciatus; settings: 1 mM NADPH, 0.1 M sodium phosphate pH 7.5, 30 °C, 30 min, substrate 0.1 to 1.2 mM, apparent; remark: listed apart in the source
Excerpt: 7-ethoxycoumarin O-deethylation (ECOD), fluorescence of 7-hydroxycoumarin, Sf9 microsomes on CYP9M10/CPR

B1: CYP6AA7/CPR (Culex quinquefasciatus) (protein)
chain: MSLLNTLLYLVLPVAALIYLFVRRKLSYWADRNVPHAPGSFPMGSLQGMGTKYHMSHILERIYQQFKNESPAVGFYLTMKPTLMVTDLELVKQVLVKDFNSFRDRGVYYNEKDDPVSAHLFAIDGEKWRFLRNKLSPTFTSGKIKYMFNTMQEIGDEFVECFGRYEEREEAVDVKTLCGWFTCDVIGSCAFGLNCNSLKNEESELITIANRLFKPSPIDAMWQFFFMSFRDLSAKLRLLILPRDIAKYFMTLIPETVTYREQNNVTRPDFLQLLIQLKNKGTVDGAEQESSGETLTMNQVVAQSFVFMLGGFETTSTALTFALFELANNPEIQEKVRVEVSSVLARHDGKITYDALKEMTYLEQVVNETLRMYPPVPFVARNSNHSYHITHPDVTLDADTMVLVPVYAIHYDPDIYQNPTRFDPDRFTPEATQARHTHAFLPFGDGPRNCIGLRFALLEVKFGIAVLLSKFRFSPSAKMILPLELDISAPMMAAKGGVWLDVNKINSKE
notes: complete reading frames cloned from 4th instar larvae cDNA; microsomal protein, not purified; with NADPH--cytochrome P450 reductase
Km [1]: 564.8 ± 14.7 µM

B2: CYP9M10/CPR (Culex quinquefasciatus) (protein)
chain: MTSLEWLLLLVPTAIYLFYRWSVATFDYFEKRGVPFVKPVPLLGGMWNFFSGKMHMVDAGSLGYEMFPDSRFSGFFAFRKPGYLIHDPELVKQITIKDFDHFADHTNVVPIEADPVLGRALFFTEGTRWKHGRSGLSPAFTGRKMRNMFALLSNYMEGAMGRLVDDARRDGGLELEMRDLFQKLGNDVTTSLSFGVEIDSVHNPNNEFMRRGKELIATDGIQGLKFLLLTVLPKSFFRTLRIRIIPKEATDFYVDVISKTIKQREEHNIVRPDFIHLLVQGRKNELKMEQADDQLKSAGFSTVEEHLQSSTENSQYSDLDITAAAASFFFGGLETTTTVICFALYEMSQNPNVKQKLQAEIDQVKEQLSTTDSKLSYEVLQNMKYLDMVVSETLRRWAPLGLTNRACTKPYTIEDNNGTKVSIQVGDLIQIPIQSIHRDHRFYPDPYKFDPERFSEENKANINRSAFLPFGSGPRNCIGSRLALMQTKCFLYYTLANFELELCPKTDVPIKLNKRSVSLDTLSGFWFRMVPRGEMKK
notes: as for B1
Km [2]: 779.3 ± 16.0 µM
